# Results as given in article PMC8545396.
# “And” between values parts separate entries of the source, which are not always exact repeats. Equal entries are not always repeated. Where two headings read alike, the source gives them in different places.
# Columns and labels:
# [1] = biological target: M2-mCherry2 (mCherry2 fused to the extracellular terminus of matrix protein 2 from influenza A/chicken/FPV/Rostock/1934) (influenza A/chicken/FPV/Rostock/1934)
# [2] = biological target: M2-mCherry2 (mCherry2 fused to the extracellular terminus of matrix protein 2 from influenza A/chicken/FPV/Rostock/1934) (influenza A/chicken/FPV/Rostock/1934); remark: listed apart in the source
# [3] = biological target: PB2-mCherry2 (IAV polymerase basic protein 2, influenza A/human/WSN/1933) (influenza A/human/WSN/1933)
# [4] = biological target: PA-mEYFP (IAV polymerase acidic protein, influenza A/human/WSN/1933) (influenza A/human/WSN/1933) (UniProt P15659)
# [5] = biological target: PA-mEYFP (IAV polymerase acidic protein, influenza A/human/WSN/1933) (influenza A/human/WSN/1933) (UniProt P15659); remark: listed apart in the source
# [6] = biological target: PB1-mEGFP (IAV polymerase basic protein 1, influenza A/human/WSN/1933) (influenza A/human/WSN/1933)
# [7] = biological target: PB2-mCherry2 (IAV polymerase basic protein 2, influenza A/human/WSN/1933) (influenza A/human/WSN/1933); remark: listed apart in the source
substance,measurement,setting,value
LC3-mEYFP (from UniProt Q62625 1-120) (natural protein),relative cross-correlation (rel.cc.),[1],0.52
same,stoichiometry N,[2],0.5 LC3:M2 and 0.25 LC3:M2
M2-mCherry2 (mCherry2 fused to the extracellular terminus of matrix protein 2 from influenza A/chicken/FPV/Rostock/1934) (natural protein),normalized molecular brightness,[1],2.24
same,stoichiometry N,[1],3.1
"PA-mEYFP (IAV polymerase acidic protein, influenza A/human/WSN/1933) (from UniProt P15659 1-716) (natural protein)",relative cross-correlation (rel.cc.),[3],0.39
same,stoichiometry N,[4],1.8
"PB1-mEGFP (IAV polymerase basic protein 1, influenza A/human/WSN/1933) (natural protein)",relative cross-correlation (rel.cc.),[3],0.47
same,relative cross-correlation (rel.cc.),[5],0.93
same,stoichiometry N,[6],2.1
"PB2-mCherry2 (IAV polymerase basic protein 2, influenza A/human/WSN/1933) (natural protein)",stoichiometry N,[7],2.2
